Experimental data from publication PMC5069480, “MPP2 is a postsynaptic MAGUK scaffold protein that links SynCAM1 cell adhesion molecules to core components of the postsynaptic density” (Scientific Reports, 2016).

Target: T1, bacterially produced MPP2 PDZ-SH3-GK (MPP2 PSG module) (mouse)
T1 construct: source: E. coli Rosetta, purified (Ni-NTA, Superdex 75)
T1 sequence (Q9WV34 whole entry, looked up): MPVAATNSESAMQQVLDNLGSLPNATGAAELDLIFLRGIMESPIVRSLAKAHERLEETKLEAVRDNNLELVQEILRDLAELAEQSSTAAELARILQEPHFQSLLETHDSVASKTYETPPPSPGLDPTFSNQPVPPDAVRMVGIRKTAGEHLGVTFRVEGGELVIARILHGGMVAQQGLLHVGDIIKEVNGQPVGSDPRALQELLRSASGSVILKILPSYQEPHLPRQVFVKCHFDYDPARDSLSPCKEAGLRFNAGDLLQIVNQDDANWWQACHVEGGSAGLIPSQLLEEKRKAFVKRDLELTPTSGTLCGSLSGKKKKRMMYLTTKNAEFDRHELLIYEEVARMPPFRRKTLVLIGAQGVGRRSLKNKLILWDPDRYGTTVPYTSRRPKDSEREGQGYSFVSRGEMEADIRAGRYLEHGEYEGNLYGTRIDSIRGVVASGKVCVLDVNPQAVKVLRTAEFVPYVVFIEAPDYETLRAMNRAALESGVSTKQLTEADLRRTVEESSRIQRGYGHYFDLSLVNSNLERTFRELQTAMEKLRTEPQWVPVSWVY
Test: ITC; ITC200 at 25 °C; 200 mM NaCl, 20 mM Tris-HCl pH 7.5, 1 mM DTT; 350 μM mCherry-tagged peptide titrated into 55 μM MPP2 PSG module in the cell; single-site binding model
Conditions: both partners purified

Binder GGGGSGGGGSGGGGSNSEEKKEYFI (domain or fragment) [bacterially produced mCherry-tagged SynCAM1 peptide (C-terminus)] has a Kd of 3.1 ± 0.239 µM.
